Test results as given in article PMC5570508.
pKd: −log10 of the molar value.

What was measured:
Test in all cases: fluorescence polarisation; titration: 5-FAM-labeled protein at 0.5 or 1 μM titrated with unlabeled protein; 20°C; analysis buffer (20 mM NaH2PO4, 50 mM NaCl, 1 mM DTT pH 7); single site binding model
[1] = target: PfEMP1 ATS of variant PFF0845c, fluorescently labeled (H159C) (P. falciparum)
[2] = target: KAHRP K2, fluorescently labeled (C414A/C450A) (P. falciparum)
[3] = target: PfEMP1 Acidic Terminal Segment (ATS) of variant PF08_0141, fluorescently labeled (Q150C) (P. falciparum)

Chain of spectrin α chain domain 17 (P02549 1704-1828): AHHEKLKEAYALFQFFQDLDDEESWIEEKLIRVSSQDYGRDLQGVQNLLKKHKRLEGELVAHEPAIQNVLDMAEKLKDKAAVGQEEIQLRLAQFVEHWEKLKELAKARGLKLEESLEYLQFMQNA
Chain of α spectrin construct spanning domains 17 to the protein C-terminus (P02549 1704-2395): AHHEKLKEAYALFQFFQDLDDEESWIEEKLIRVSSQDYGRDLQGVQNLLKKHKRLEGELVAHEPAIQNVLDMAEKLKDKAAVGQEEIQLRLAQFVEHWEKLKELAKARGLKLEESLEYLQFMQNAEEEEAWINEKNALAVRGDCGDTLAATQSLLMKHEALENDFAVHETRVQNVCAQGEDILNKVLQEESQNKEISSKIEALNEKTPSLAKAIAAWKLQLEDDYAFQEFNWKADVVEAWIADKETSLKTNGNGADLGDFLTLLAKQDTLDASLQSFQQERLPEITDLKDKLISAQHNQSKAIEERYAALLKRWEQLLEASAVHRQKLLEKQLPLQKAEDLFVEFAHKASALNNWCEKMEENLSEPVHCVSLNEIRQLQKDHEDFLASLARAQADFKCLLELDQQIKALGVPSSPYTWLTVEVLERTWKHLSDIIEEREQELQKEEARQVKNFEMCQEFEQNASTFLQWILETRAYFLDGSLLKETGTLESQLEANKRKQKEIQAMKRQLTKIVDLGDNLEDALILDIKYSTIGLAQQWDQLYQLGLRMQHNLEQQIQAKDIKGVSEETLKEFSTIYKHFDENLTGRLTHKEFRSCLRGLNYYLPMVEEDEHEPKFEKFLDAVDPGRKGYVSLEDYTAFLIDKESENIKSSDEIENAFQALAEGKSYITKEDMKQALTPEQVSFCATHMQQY
Chain of spectrin β chain domains 10–14 (P11277 1272-1804): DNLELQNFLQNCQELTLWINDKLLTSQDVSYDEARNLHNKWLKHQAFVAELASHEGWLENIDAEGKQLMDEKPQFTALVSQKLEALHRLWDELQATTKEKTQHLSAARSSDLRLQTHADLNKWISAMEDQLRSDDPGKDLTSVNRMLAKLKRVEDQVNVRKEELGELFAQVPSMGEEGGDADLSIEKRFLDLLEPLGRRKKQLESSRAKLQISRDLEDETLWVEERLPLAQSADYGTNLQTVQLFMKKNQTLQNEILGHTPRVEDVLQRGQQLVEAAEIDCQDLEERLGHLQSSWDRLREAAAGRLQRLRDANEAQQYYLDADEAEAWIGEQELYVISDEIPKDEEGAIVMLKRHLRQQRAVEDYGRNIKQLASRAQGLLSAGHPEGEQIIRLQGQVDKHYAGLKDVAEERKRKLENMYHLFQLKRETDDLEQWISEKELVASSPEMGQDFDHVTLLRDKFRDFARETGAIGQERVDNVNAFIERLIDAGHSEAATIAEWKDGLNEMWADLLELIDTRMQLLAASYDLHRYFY
Chain of spectrin α chain domains 12–16 (P02549 1174-1716): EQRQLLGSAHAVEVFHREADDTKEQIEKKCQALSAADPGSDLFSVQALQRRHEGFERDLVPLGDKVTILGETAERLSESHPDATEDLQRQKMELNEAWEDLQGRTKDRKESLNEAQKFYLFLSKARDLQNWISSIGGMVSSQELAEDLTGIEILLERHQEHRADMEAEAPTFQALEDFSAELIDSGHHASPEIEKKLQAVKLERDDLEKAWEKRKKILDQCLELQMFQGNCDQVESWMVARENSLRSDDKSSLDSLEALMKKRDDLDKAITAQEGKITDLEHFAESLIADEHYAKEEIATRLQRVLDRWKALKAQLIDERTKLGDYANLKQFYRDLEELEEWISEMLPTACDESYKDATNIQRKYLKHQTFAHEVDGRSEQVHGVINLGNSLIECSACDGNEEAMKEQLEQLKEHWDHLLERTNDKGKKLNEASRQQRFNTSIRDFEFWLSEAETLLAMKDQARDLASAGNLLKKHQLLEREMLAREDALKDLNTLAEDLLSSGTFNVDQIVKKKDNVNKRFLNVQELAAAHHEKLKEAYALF

Row | Substance | pKd [2] | further results
1 | spectrin α chain domain 17 (from UniProt P02549 1704-1828) (domain or fragment) | – | pKd [1]: 4.62
2 | spectrin α chain domains 12–16 (from UniProt P02549 1174-1716) (domain or fragment) | 3.80 | –
3 | spectrin β chain domains 10–14 (from UniProt P11277 1272-1804) (domain or fragment) | 4.30 | –
4 | α spectrin construct spanning domains 17 to the protein C-terminus (from UniProt P02549 1704-2395) (domain or fragment) | – | pKd [3]: 4.23
